Data taken from patent publication EP3107577B1 (IBC Pharmaceuticals, Inc., dated 2024).
Where two headings read alike, the source gives them in different places. Blank lines part the entries; values can stand above or below the binder they belong to.

How the values were obtained:
[1] = biological target: T1, mouse Trop-2 (mouse, UniProt Q8BGV3 25-270, limits assumed); test: not described (data not shown)
T1 sequence (looked up): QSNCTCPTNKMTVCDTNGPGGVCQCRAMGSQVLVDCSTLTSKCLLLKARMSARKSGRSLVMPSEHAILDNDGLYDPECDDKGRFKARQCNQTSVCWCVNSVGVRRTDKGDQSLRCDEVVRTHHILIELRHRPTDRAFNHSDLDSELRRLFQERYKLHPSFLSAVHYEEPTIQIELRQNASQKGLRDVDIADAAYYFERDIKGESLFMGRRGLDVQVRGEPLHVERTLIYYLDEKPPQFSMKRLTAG

[2] = biological target: T2, mouse CD3 (mouse, UniProt P22646 22-108); test: not described (data not shown)
T2 sequence (looked up): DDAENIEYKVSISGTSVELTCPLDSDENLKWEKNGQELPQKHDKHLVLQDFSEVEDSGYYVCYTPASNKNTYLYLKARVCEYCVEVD

[3] = biological target: T3, Trop-2 (human, UniProt P09758 27-323); test: cell-based or functional assay
T3 sequence (looked up): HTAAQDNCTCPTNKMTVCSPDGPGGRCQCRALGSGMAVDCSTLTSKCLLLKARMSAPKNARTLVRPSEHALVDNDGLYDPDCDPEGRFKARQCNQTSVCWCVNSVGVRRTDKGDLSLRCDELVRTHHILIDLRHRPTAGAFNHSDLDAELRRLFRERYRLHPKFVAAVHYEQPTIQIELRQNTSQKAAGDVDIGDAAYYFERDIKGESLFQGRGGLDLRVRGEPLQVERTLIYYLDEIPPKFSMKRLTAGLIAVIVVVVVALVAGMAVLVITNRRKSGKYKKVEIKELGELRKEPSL

[4] = biological target: T3, Trop-2; test: cell-based or functional assay; remark: listed apart in the source
[5] = biological target: T3, Trop-2; test: assay not described; specificity EGP-1 per Table 11
[6] = biological target: T3, Trop-2; test: as above; remark: listed apart in the source

binding result [1]: no binding | binding result [2]: no binding | EC50, T-cell lysis of NCI-N87 cells, very weak donor T cells [4]: 39 pM | EC50, T-cell lysis of NCI-N87 cells, very weak donor T cells, with peginterferonalfa-2a [4]: 1.4 pM | IC50, T-cell lysis of NCI-N87 cells, donor of very active T cells [4]: 0.37 pM | IC50, T-cell lysis of NCI-N87 cells, with 0.1 nM 20*-2b [4]: 0.05 pM | IC50, T-cell lysis of NCI-N87 cells, with 0.1 nM peginterferonalfa-2a [4]: 0.14 pM | IC50, T-cell mediated lysis of Capan-1 cells [4]: 29 pM | IC50, T-cell mediated lysis of NCI-N87 cells [4]: 0.85 pM
B1: (E1)-3s (bispecific antibody)
scFv: not shown
heavy (part 1 of 2): QVQLQQSGSELKKPGASVKVSCKASGYTFTNYGMNWVKQAPGQGLKWMGWINTYTGEPTYTDDFKGRFAFSLDTSVSTAYLQISSLKADDTAVYFCARGGFGSSYWYFDVWGQGSLVTVSS
heavy (part 2 of 2): not shown
light: DIQLTQSPSSLSASVGDRVSITCKASQDVSIAVAWYQQKPGKAPKLLIYSASYRYTGVPDRFSGSGSGTDFTLTISSLQPEDFAVYYCQQHYITPLTFGAGTKVEIK
notes: also called TROP2-targeting bsAb; anti-human Trop-2 x anti-human CD3 bispecific antibody; not shown: human CH1, hinge residues and Gly/Ser linker; human kappa constant domain
IC50, T cell redirected killing of BxPC3, Donor 1 [3]: 1.06 pM | IC50, T cell redirected killing of BxPC3, Donor 2 [3]: 0.56 pM | IC50, T cell redirected killing of BxPC3, Donor 3 [3]: 0.32 pM | IC50, T cell redirected killing of Capan-1, Donor 1 [3]: 35.6 pM | IC50, T cell redirected killing of Capan-1, Donor 2 [3]: 248 pM | IC50, T cell redirected killing of Capan-1, Donor 4 [3]: 8.51 pM | IC50, T cell redirected killing of NCI-N87, Donor 1 [3]: 6.76 pM | IC50, T cell redirected killing of NCI-N87, Donor 2 [3]: 34 pM | IC50, T-cell killing of BxPC3 cells [4]: 0.4 pM

binding result [5]: binds
B2: C-AD2-IgG-hRS7 (antibody)
heavy (part 1 of 2): B1 heavy (part 1 of 2)
heavy (part 2 of 2): CGQIEYLAKQIVDNAIQQAGC
light: B1 light
notes: not shown: IgG heavy chain constant region and linker; kappa constant domain

binding result [6]: binds
B3: C-DDD2-Fab-hRS7 (Fab)
heavy (part 1 of 2): B1 heavy (part 1 of 2)
heavy (part 2 of 2): not shown
light: B1 light
notes: also called CH1-DDD2-Fab-hRS7; not shown: CH1, hinge residues and linker; kappa constant domain
